Laboratory results from patent US20160237160A1 (Bayer, published 2016).

Key:
[1] = molecular target: TWEAKR (TNFRSF12A, FN14), human, on tumor cell lines (human, UniProt Q9NP84 28-129); experiment: cell-based or functional assay
[2] = molecular target: T1, TPP-599 (HUMAN-TNFRSF12Aaa28-80-hIgG1-Fc) (human); experiment: SPR, TWEAKR-Fc immobilized, IgG injected, bivalent analyte model (avidity mode);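 further: kd derived as the ratio of fitted dissociation to association rate constants, with sensorgrams corrected against a reference flow cell and a buffer blank before fitting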
T1 construct: dimeric; also called human TWEAKR Fc; TWEAKR-Fc
Experimental: (§1) Sensorgrams were generated after in-line reference cell correction followed by buffer sample subtraction. The dissociation equilibrium constant (KD) was calculated based on the ratio of association (kₒₙ₁) and dissociation rated (koff1) constants, obtained by fitting sensorgrams with a bivalent analyte model using Biavaluation Software (version 4.0).

[3] = molecular target: T2, TPP-601 (MURINE-TNFRSF12Aaa28-80-hIgG1-Fc) (murine); experiment: as above
T2 construct: dimeric; also called murine TWEAKR Fc
Experimental: as §1

[4] = molecular target: T3, TPP-1846 (MAC-TNFRSF12Aaa28-80-hIgG1-Fc) (macaca fascicularis); experiment: as above
T3 construct: bivalent antigen; also called mac fasc TWEAKR Fc
Experimental: as §1

[5] = molecular target: T4, TPP-1779 (RAT-TNFRSF12Aaa28-80-hIgG1-Fc) (rat); experiment: as above
T4 construct: bivalent antigen; also called rat TWEAKR Fc
Experimental: as §1

[6] = molecular target: T5, TPP-1777 (DOG-TNFRSF12Aaa28-80-hIgG1-Fc) (dog); experiment: as above
T5 construct: bivalent antigen; also called dog TWEAKR Fc
Experimental: as §1

Binder | Fold induction of Caspase 3/7, 786-O cells, 100 ug/ml [1] [fold] | Fold induction of Caspase 3/7, A253 cells, 100 ug/ml [1] [fold] | Fold induction of Caspase 3/7, HT-29 cells, 100 ug/ml [1] [fold] | Fold induction of Caspase 3/7, NCI-H322 cells, 100 ug/ml [1] [fold] | Fold induction of Caspase 3/7, WiDr cells, 100 ug/ml [1] [fold] | Kd [2] [nM] | Kd [3] [nM] | Kd [4] [nM] | Kd [5] [nM] | Kd [6] [nM]
P4A8(TPP-1324) (antibody, human IgG1, kappa, V domains shown, Human IgG1; variable domains from WO2009/140177 with constant region added) VH: QVQLVQSGAEVKKPGASVKVSCKGSGYTFTDYGMHWVRQAPGQGLEWMGVISTYNGYTNYNQKFKGRVTMTVDKSTSTAYMELRSLRSDDTAVYYCARAYYGNLYYAMDYWGQGTLVTVSS VL: DIVLTQSPASLAVSLGQRATISCRASKSVSTSSYSYMHWYQQKPGQPPKLLIKYASNLESGVPARFSGSGSGTDFSLNIHPMEEDDTAMYFCQHSRELPFTFGGGTKLEIKR | 1.1 | 1.38 | 1.49 | 1.02 | 1.12 |  |  |  |  | 
TPP-2090 (antibody, human IgG1, kappa, V domains shown, Human IgG1) VH: EVQLLESGGGLVQPGGSLRLSCAASGFTFSPYPMIWVRQAPGKGLEWVSYISPSGGSTHYADSVKGRFTISRDNSKNTLYLQMNSLRAEDTAVYYCARGGDTYFDYFDYWGQGTLVTVSS VL: DIQMTQSPSSLSASVGDRVTITCRASQSISGYLNWYQQKPGKAPKLLIYQASSLQSGVPSRFSGSGSGTDFTLTISSLQPEDFATYYCQQSYTSPFITFGQGTKVEIKR |  |  |  |  |  | 15 | 4.1 | 21.2 | 4.3 | 6
